# According to patent US20120316071A1 (published 2012):
# T1: rHuman Erythropoietin R/Fc Chimera, CF (R&D Systems Cat#963-ER) (human, UniProt P19235 25-250)
# T1 construct: Bought Fc chimera; also called EPO R/Fc; Epo R; Fc part of the bought chimera not given
# T1 sequence (looked up): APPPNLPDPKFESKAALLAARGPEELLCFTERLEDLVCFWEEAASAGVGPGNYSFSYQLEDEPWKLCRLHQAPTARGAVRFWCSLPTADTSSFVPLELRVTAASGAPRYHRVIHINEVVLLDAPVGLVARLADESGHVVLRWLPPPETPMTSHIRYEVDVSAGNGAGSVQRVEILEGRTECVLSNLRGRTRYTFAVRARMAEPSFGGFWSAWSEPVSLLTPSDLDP
# T2: rHuman Erythropoietin R/Fc Chimera, CF (R&D Systems Cat#963-ER) (human, UniProt P19235 25-250)
# T2 construct: Bought reagent; also called EPO R/Fc; Epo R
# T2 sequence (looked up): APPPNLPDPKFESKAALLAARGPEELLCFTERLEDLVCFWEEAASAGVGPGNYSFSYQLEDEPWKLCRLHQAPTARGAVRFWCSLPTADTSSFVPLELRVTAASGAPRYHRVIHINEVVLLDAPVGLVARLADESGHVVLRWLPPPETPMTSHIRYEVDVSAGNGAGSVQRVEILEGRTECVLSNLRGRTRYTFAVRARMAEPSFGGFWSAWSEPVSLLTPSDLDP
# T3: rHuman Erythropoietin R/Fc Chimera, CF (R&D Systems Cat#963-ER) (human, UniProt P19235 25-250)
# T3 construct: Bought recombinant protein; also called EPO R/Fc; Epo R; Fc part of the bought chimera not given
# T3 sequence (looked up): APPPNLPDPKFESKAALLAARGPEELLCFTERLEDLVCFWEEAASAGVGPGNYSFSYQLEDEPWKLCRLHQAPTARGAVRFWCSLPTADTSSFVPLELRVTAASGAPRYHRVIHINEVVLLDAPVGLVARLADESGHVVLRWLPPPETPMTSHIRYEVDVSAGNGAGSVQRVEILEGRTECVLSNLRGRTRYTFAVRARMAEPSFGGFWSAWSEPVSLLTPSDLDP
# How the values were obtained:
# [1] = target: T4, rHuman CD44/Fc Chimera, CF (R&D Systems Cat#3660-CD) (human, UniProt P16070 21-220); assay: MSD Multispot ECL, antigen spotted on plate, Fab at 15 nM; blank spot 261
# T4 construct: Bought Fc chimera; Fc part of the bought chimera not given
# [2] = target: T5, rHuman P-Cadherin/Fc Chimera, CF (R&D Systems Cat#861-PC) (human, UniProt P22223 108-654); assay: as above
# T5 construct: Bought Fc chimera; Fc part of the bought chimera not given
# [3] = target: T1, rHuman Erythropoietin R/Fc Chimera, CF …; assay: as above
# [4] = target: T6, rHuman Notch-1/Fc Chimera, CF (R&D Systems Cat#3647-TK) (human, UniProt P46531 19-526); assay: as above
# T6 construct: Bought Fc chimera; Fc part of the bought chimera not given
# [5] = target: T7, Recombinant Human DLL4 (R&D Systems Cat#1506-D4/CF) (human, UniProt Q9NR61 27-524); assay: as above
# T7 construct: Bought recombinant protein; also called rHuman DLL4; delta-like protein 4
# [6] = target: T8, rHuman Notch-1/Fc Chimera, CF (R&D Systems Cat#3647-TK) (human, UniProt P46531 19-526); assay: MSD multispot ECL, antigen spotted, Fab 595.8 nM; blank spot 285
# T8 construct: Bought reagent
# [7] = target: T2, rHuman Erythropoietin R/Fc Chimera, CF …; assay: as above
# [8] = target: T9, rHuman ErbB2/Fc Chimera, CF (R&D Systems Cat#1129-ER) (human, UniProt P04626 23-652); assay: as above
# T9 construct: Bought reagent; also called human epidermal growth factor 2 receptor
# [9] = target: T10, rHuman IGF-1 sR, (IGF-1 sR), CF (R&D Systems Cat#391-GR) (human, UniProt P08069 31-932); assay: as above
# T10 construct: Bought soluble receptor; also called insulin-like growth factor-1 soluble receptor
# [10] = target: T11, rHuman HGF R/c-MET/Fc Chimera, CF (R&D Systems Cat#358-MT/CF) (human, UniProt P08581 25-932); assay: as above
# T11 construct: Bought reagent; also called HGF R/Fc; hepatocyte growth factor receptor
# [11] = target: T12, Recombinant Human DLL4 (R&D Systems Cat#1506-D4/CF) (human, UniProt Q9NR61 27-524); assay: as above
# T12 construct: Bought recombinant protein; also called rHuman DLL4; delta-like protein 4
# [12] = target: T13, rHuman EGF R/Fc Chimera, CF (R&D Systems Cat#344-ER) (human, UniProt P00533 25-645); assay: as above
# T13 construct: Bought reagent; also called epidermal growth factor receptor
# [13] = target: T14, rHuman CD44/Fc Chimera, CF (R&D Systems Cat#3660-CD) (human, UniProt P16070 21-220); assay: as above
# T14 construct: Bought reagent
# [14] = target: T3, rHuman Erythropoietin R/Fc Chimera, CF …; assay: Multispot ECL (MSD), antigen spotted on plate, Fab 7.8 nM; blank spot 316
# [15] = target: T15, rHuman IGF-1 sR, CF (R&D Systems Cat#391-GR) (human, UniProt P08069 31-932); assay: as above
# T15 construct: Bought recombinant soluble receptor; also called insulin-like growth factor-1 soluble receptor
# [16] = target: T16, Recombinant Human DLL4 (R&D Systems Cat#1506-D4/CF) (human, UniProt Q9NR61 27-524); assay: as above
# T16 construct: Bought recombinant protein; also called rHuman DLL4; delta-like protein 4
# T11 sequence (P08581 25-932, change not shown): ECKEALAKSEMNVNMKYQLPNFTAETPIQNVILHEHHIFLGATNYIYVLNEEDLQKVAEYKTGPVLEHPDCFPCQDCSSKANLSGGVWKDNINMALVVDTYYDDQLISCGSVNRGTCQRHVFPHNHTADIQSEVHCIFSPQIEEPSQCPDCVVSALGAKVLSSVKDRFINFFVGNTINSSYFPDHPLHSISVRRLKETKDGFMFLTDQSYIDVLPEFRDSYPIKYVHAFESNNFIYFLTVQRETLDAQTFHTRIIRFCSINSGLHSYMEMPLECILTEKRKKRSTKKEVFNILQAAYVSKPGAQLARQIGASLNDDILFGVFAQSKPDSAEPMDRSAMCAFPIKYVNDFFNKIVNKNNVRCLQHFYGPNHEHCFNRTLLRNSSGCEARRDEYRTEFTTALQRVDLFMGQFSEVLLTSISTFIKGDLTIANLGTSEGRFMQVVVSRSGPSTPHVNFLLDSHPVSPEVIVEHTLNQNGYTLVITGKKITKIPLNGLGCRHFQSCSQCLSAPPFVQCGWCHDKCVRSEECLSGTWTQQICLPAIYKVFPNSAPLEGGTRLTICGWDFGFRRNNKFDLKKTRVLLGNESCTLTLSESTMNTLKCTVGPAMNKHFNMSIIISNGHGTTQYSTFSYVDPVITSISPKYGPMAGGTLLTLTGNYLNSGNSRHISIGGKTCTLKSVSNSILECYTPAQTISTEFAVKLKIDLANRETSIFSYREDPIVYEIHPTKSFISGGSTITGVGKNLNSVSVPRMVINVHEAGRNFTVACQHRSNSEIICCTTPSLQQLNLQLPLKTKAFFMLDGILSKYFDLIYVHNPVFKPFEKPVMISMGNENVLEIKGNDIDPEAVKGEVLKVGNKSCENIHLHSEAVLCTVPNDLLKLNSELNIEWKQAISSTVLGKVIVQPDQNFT
binder,measurement,setting,value
"Fab VH6-1_IGHD3-3*01_IGHJ4*01 & V4-3_IGLJ4*01 (Fab, V domains shown, Tested as a purified germline Fab made in E. coli; The VH was cloned into plasmid A (CH1 constant region, His6 and Flag tags) and the lambda VL into plasmid E (lambda CL)) VH: QVQLQQSGPGLVKPSQTLSLTCAISGDSVSSNSAAWNWIRQSPSRGLEWLGRTYYRSKWYNDYAVSVKSRITINPDTSKNQFSLQLNSVTPEDTAVYYCAREYYDFWSGYYTDYFDYWGQGTLVTVSS VL: QPVLTQPTSLSASPGASARLTCTLRSGINLGSYRIFWYQQKPESPPRYLLSYYSDSSKHQGSGVPSRFSGSKDASSNAGILVISGLQSEDEADYYCMIWHSSASFVFGGGTQLIIL",ECL signal,[1],454
same,ECL signal,[2],351
same,ECL signal,[3],397
same,ECL signal,[4],508
same,ECL signal,[5],690
"Fab VH1-46_IGHD6-6*01_IGHJ1*01 & L6_IGKJ1*01 (Fab, V domains shown, Only variable domains are tied to the molecule; Tested as a Fab made in E. coli: heavy chain from Plasmid A (CH1 constant region, His6 and Flag tags), kappa light chain from Plasmid C (kappa CL); also called parent Hit Fab against DLL4; VH1-46_IGHD6-6*01_IGHJ1*01 & L6_IGKJ1*01 (parental)) VH: QVQLVQSGAEVKKPGASVKVSCKASGYTFTSYYMHWVRQAPGQGLEWMGIINPSGGSTSYAQKFQGRVTMTRDTSTSTVYMELSSLRSEDTAVYYCAREEYSSSSAEYFQHWGQGTLVTVSS VL: not shown",ECL signal,[6],306 ECL signal
same,ECL signal,[7],378 ECL signal
same,ECL signal,[8],321 ECL signal
same,ECL signal,[9],335 ECL signal
same,ECL signal,[10],353 ECL signal
same,ECL signal,[11],17200 ECL signal
same,ECL signal,[12],403 ECL signal
same,ECL signal,[13],372 ECL signal
"Fab VH1-46_IGHD6-13*01_IGHJ4*01 & B3_IGKJ1*01 (Fab, V domains shown, Germline Fab made in E. coli; VH was cloned into Plasmid A (CH1, His6 and Flag tags) and the kappa VL into Plasmid C (kappa CL)) VH: QVQLVQSGAEVKKPGASVKVSCKASGYTFTSYYMHWVRQAPGQGLEWMGIINPSGGSTSYAQKFQGRVTMTRDTSTSTVYMELSSLRSEDTAVYYCAREGYSSSWYDYFDYWGQGTLVTVSS VL: not shown",ECL signal,[14],6760
same,ECL signal,[15],353
same,ECL signal,[16],407
